# Positions of bridges follow the written chain, without caps; N, C: chain ends. Non-standard residues stand in square brackets, D forms with d. Residues, ends and D or L forms follow the SMILES beside them. No end group written: not given here. Phenylbutanoyl = Phenylbutanoyl residue at the C-terminus; NEtPhe = CCN[C@@H](Cc1ccccc1)C(=O)O; NMeF = CN[C@@H](Cc1ccccc1)C(=O)O; Cha = N[C@@H](CC1CCCCC1)C(=O)O; dCha = N[C@H](CC1CCCCC1)C(=O)O; AllylGly = C=CC[C@H](N)C(=O)O; Nle = CCCC[C@H](N)C(=O)O; Orn = NCCC[C@H](N)C(=O)O; dNMeA = CN[C@H](C)C(=O)O
# T1: C5aR (Homo sapiens, UniProt P21730)
# T1 construct: derived from measurements with isolated membranes from polymorphonuclear neutrophilic granulocytes (PMN membranes); host or cells: isolated membranes of polymorphonuclear neutrophilic granulocytes (PMN membranes)
# T1 sequence (P21730 1-350): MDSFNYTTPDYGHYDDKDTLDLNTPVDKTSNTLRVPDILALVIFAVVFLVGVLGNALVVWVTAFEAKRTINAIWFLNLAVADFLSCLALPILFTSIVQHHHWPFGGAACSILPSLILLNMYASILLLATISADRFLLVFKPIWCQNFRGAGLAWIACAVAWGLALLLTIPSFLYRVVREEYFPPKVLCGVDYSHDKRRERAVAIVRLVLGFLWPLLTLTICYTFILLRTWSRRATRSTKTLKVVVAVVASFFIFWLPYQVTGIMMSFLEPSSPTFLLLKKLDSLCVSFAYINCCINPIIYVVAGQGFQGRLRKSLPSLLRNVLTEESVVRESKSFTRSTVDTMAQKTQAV
# T2: human C5aR (CD88) (human, UniProt P21730 1-350)
# T2 sequence (looked up): T1 sequence (P21730 1-350)
# B1: Ac-Phe-[Orn-Pro-cha-Trp-Eaf] (peptide)
# peptide: Ac-F[Orn]P[dCha]W[AllylGly]
# modifications: lactam (positions not given here); not fully specified (bridges); printed as Ac-Phe-[Orn-Pro-cha-Trp-Eaf]
# B2: Ac-Lys-Phe-[Orn-Pro-cha-Trp-Nle] (peptide)
# peptide: Ac-KF[Orn]P[dCha]W[Nle]
# modifications: lactam 3-C
# SMILES: CCCC[C@@H]1NC(=O)[C@H](Cc2c[nH]c3ccccc23)NC(=O)[C@@H](CC2CCCCC2)NC(=O)[C@@H]2CCCN2C(=O)[C@@H](NC(=O)[C@H](Cc2ccccc2)NC(=O)[C@H](CCCCN)NC(C)=O)CCCNC1=O
# B3: Ac-Phe-[Orn-Pro-cha-Trp-Phe] (peptide)
# peptide: Ac-F[Orn]P[dCha]WF
# modifications: lactam (positions not given here); not fully specified (bridges); printed as Ac-Phe-[Orn-Pro-cha-Trp-Phe]
# B4: Ac-Phe-[Orn-Pro-cha-Trp-Nle] (peptide)
# peptide: Ac-F[Orn]P[dCha]W[Nle]
# modifications: lactam (positions not given here); not fully specified (bridges); printed as Ac-Phe-[Orn-Pro-cha-Trp-Nle]
# Target: T1, C5aR
# Assay: not given
# Conditions: PMN membranes; read-out: IC50 binding to C5aR (WO 92/12168); cited from earlier work
row,Molecule,IC50
1,(N-Methyl)Phe-Lys-Pro-cha-Phe-Phenylbutanoyl ([NMeF]KP[dCha]F-Phenylbutanoyl),2600 nM
2,(N-Methyl)Phe-Lys-Pro-cha-ψ{CH2- N(CH2CH2C6H5)}-Arg-OH,360 nM

# Same assay, conditions: PMN membranes; read-out: IC50 for the binding (WO 90/09162); cited from earlier work
row,Molecule,IC50
1,CC(=O)N[C@@H](Cc1ccccc1)C(=O)N[C@@H](CCCCN)C(=O)N[C@@H](C)C(=O)N[C@@H](CC1CCCCC1)C(=O)N[C@@H](C)C(=O)N[C@@H](CC(C)C)C(=O)N[C@H](C)C(=O)N[C@@H](Cc1ccc(O)cc1)C(=O)O [Ac-Phe-Lys-Ala-Cha-Ala-Leu-ala-Tyr-OH] (Ac-FKA[Cha]AL[dA]Y-OH),170 nM
2,(N-Ethyl)Phe-Lys-Ala-Cha-Ala-Leu-N-Methyl(D)ala-Arg-OH ([NEtPhe]KA[Cha]AL[dNMeA]R-OH; N-terminus assumed; SMILES CCN[C@@H](Cc1ccccc1)C(=O)N[C@@H](CCCCN)C(=O)N[C@@H](C)C(=O)N[C@@H](CC1CCCCC1)C(=O)N[C@@H](C)C(=O)N[C@@H](CC(C)C)C(=O)N(C)[C@H](C)C(=O)N[C@@H](CCCNC(=N)N)C(=O)O),11 nM
3,Ac-Phe-Lys-Ala-Cha-Ala-Leu-N-Methyl(D)ala-Arg-OH (Ac-FKA[Cha]AL[dNMeA]R-OH; SMILES CC(=O)N[C@@H](Cc1ccccc1)C(=O)N[C@@H](CCCCN)C(=O)N[C@@H](C)C(=O)N[C@@H](CC1CCCCC1)C(=O)N[C@@H](C)C(=O)N[C@@H](CC(C)C)C(=O)N(C)[C@H](C)C(=O)N[C@@H](CCCNC(=N)N)C(=O)O),12 nM

# Target: T2, human C5aR (CD88)
# Assay: cell-based or functional assay
# Conditions: not given
row,Molecule,"EC50, agonistic activity, enzyme release assay"
1,H-F[Orn]P[dCha]W[Nle] (lactam 2-C; not fully specified; printed as H-Phe-[Orn-Pro-cha-Trp-Nle]) [H-Phe-[Orn-Pro-cha-Trp-Nle]],> 1430 nM
2,{HOCH2(CHOH)4‑C═N‑O‑CH2‑CO}-F[Orn]P[dCha]W[Nle] (lactam 2-C) [HOCH2(CHOH)4-C═N-O-CH2-CO-Phe-[Orn-Pro-cha-Trp-Nle]],> 1430 nM
3,B1,> 1430 nM
4,B2,> 1430 nM
5,B3,> 1430 nM
6,{Ph‑CH2‑CH2‑CO}-[Orn]P[dCha]W[Nle] (lactam 1-C) [Ph-CH2-CH2-CO-[Orn-Pro-cha-Trp-Nle]],> 1430 nM
7,B4,> 1430 nM

# Target: T2, human C5aR (CD88)
# Assay: cell-based or functional assay
# Conditions: not given
# Remark: another data set of the same source
row,Molecule,"IC50, enzyme release assay"
1,B3,23 nM

# Target: T2, human C5aR (CD88)
# Assay: cell-based or functional assay
# Conditions: not given
# Remark: another data set of the same source
row,Molecule,"IC50 activity group, enzyme release assay"
1,{HOCH2(CHOH)4‑C═N‑O‑CH2‑CO}-F[Orn]P[dCha]W[Nle] (lactam 2-C) [HOCH2(CHOH)4-C═N-O-CH2-CO-Phe-[Orn-Pro-cha-Trp-Nle]],≤ 200 nM
2,B1,≤ 10 nM
3,B2,≤ 50 nM
4,B3,≤ 50 nM
5,B4,≤ 50 nM

# Reference: patent publication US7727960B2, “C5a receptor antagonists” (Jerini AG, priority 2003, dated 2010)
